Test results taken from IntAct's records for PubMed 30179222.

B1: Nuclear pore complex protein Nup85 (Homo sapiens), Q9BW27 (parent)
chain: MEELDGEPTVTLIPGVNSKKNQMYFDWGPGEMLVCETSFNKKEKSEMVPSCPFIYIIRKDVDVYSQILRKLFNESHGIFLGLQRIDEELTGKSRKSQLVRVSKNYRSVIRACMEEMHQVAIAAKDPANGRQFSSQVSILSAMELIWNLCEILFIEVAPAGPLLLHLLDWVRLHVCEVDSLSADVLGSENPSKHDSFWNLVTILVLQGRLDEARQMLSKEADASPASAGICRIMGDLMRTMPILSPGNTQTLTELELKWQHWHEECERYLQDSTFATSPHLESLLKIMLGDEAALLEQKELLSNWYHFLVTRLLYSNPTVKPIDLHYYAQSSLDLFLGGESSPEPLDNILLAAFEFDIHQVIKECSIALSNWWFVAHLTDLLDHCKLLQSHNLYFGSNMREFLLLEYASGLFAHPSLWQLGVDYFDYCPELGRVSLELHIERIPLNTEQKALKVLRICEQRQMTEQVRSICKILAMKAVRNNRLGSALSWSIRAKDAAFATLVSDRFLRDYCERGCFSDLDLIDNLGPAMMLSDRLTFLGKYREFHRMYGEKRFADAASLLLSLMTSRIAPRSFWMTLLTDALPLLEQKQVIFSAEQTYELMRCLEDLTSRRPVHGESDTEQLQDDDIETTKVEMLRLSLARNLARAIIREGSLEGS
partner: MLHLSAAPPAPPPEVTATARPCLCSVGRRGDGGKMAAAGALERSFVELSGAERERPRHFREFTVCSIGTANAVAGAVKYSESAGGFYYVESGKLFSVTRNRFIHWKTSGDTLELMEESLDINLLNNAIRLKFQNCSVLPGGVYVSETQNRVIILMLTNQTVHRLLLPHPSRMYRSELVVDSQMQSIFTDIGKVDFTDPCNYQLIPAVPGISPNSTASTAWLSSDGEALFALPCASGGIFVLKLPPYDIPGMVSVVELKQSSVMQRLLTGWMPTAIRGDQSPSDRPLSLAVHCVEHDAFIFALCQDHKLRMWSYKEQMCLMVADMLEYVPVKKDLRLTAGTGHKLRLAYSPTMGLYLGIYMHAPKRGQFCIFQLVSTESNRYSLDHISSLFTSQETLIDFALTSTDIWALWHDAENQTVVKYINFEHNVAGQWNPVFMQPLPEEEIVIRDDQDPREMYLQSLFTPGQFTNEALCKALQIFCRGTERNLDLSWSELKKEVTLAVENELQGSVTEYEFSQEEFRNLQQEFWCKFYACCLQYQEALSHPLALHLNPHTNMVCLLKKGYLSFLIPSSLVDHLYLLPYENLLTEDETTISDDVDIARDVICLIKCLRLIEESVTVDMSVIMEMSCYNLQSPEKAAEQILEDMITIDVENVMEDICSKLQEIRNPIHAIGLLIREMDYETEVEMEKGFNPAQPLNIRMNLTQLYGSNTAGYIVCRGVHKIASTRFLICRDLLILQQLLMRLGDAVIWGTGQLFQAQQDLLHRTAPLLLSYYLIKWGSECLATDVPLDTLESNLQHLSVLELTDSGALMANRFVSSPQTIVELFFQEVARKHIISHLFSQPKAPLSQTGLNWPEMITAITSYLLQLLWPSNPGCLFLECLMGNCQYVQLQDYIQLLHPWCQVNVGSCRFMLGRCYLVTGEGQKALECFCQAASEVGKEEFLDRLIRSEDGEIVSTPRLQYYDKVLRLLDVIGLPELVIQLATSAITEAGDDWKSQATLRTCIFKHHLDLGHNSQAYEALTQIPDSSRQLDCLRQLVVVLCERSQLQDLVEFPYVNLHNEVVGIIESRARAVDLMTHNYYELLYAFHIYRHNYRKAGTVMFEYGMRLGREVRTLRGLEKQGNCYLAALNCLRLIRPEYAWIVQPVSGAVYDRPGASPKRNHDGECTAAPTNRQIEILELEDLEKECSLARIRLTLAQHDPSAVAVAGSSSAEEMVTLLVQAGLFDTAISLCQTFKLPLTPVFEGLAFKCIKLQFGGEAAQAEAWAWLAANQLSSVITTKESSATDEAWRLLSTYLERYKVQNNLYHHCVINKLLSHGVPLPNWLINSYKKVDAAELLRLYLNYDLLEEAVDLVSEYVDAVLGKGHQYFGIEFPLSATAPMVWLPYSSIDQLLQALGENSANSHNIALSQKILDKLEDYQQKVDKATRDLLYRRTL

Variants of: B1
Details: with nu160_human NUP160, Q12769

effect of a mutation on the interaction | Variant
disrupting interaction strength | A581P
decreasing interaction strength | A477V
decreasing interaction strength | R645W

Variants of: B1
Details: with nu160_human NUP160, Q12769
Remark: another data set of the same source

effect of a mutation on the interaction | Variant
with no effect | A477V
